The PETadex activity labels (doi:10.1007/s00253-014-5672-0)

B1: unnamed (protein)
chain: ANPYERGPNPTDALLEARSGPFSVSEENVSRLSASGFGGGTIYYPRENNTYGAVAISPGYTGTEASIAWLGERIASHGFVVITIDTITTLDQPDSRAEQLNAALNHMINRASSTVRSRIDSSRLAVMGHSMGGGGSLRLASQRPDLKAAIPLTPWHLNKNWSSVTVPTLIIGADLDTIAPVATHAKPFYNSLPSSISKAYLELDGATHFAPNIPNKIIGKYSVAWLKRFVDNDTRYTQFLCPGPRDGLFGEVEEYRSTCPF
B2: unnamed (protein)
chain: ANPYERGPNPTDALLEARSGPFSVSEENVSRLSASGFGGGTIYYPRENNTYGAVAISPGYTGTEASIAWLGERIASHGFVVITIDTITTLDQPDSRAEQLNAALNHMINRASSTVRSRIDSSRLAVMGHSMGGGGSLRLASQRPDLKAAIPLTPWHLNKNWSSVTVPTLIIGADLDTIAPVATHAKPFYNSLPSSISKAYLELDGATHFAPNIPNKIIGKYSVAWLKRFVDNDTRYTQFLCPGPRDGLFGEVEEYRSTCPFY

Key:
[1] = Melting temperature [CD spectroscopy]; settings: pH 8.5; part of the chain shown
[2] = substrate: pNPB; assay: Proxy for plastic degradation [Residual activity]; settings: pH 8, part of the chain shown

Protein	Melting temperature [1]	Proxy for plastic degradation ([2]; 25 °C)	Proxy for plastic degradation ([2]; 30.7 °C)	Proxy for plastic degradation ([2]; 40.2 °C)	Proxy for plastic degradation ([2]; 50.6 °C)	Proxy for plastic degradation ([2]; 54.9 °C)	Proxy for plastic degradation ([2]; 59.5 °C)	Proxy for plastic degradation ([2]; 65.6 °C)	Proxy for plastic degradation ([2]; 68.6 °C)	Proxy for plastic degradation ([2]; 74.8 °C)	Proxy for plastic degradation ([2]; 78.8 °C)
B1	70 °C										
B2		100%	110%	95%	115%	85%	65%	2%	1%	0%	0%
